# Laboratory results published in patent US20150203577A1 (Chugai, published 2015).
# T1: mouse FcγRII (mouse, UniProt P08101 30-210)
# T1 construct: Extracellular domain with C-terminal His tag, made in FreeStyle 293 cells; also called mFcγRII; mFcgRII
# T1 sequence: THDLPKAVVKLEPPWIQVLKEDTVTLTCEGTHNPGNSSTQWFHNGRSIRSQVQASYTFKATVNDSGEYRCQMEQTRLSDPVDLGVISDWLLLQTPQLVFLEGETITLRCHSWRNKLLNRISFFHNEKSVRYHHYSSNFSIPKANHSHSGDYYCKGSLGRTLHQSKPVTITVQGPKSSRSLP
# T2: mouse FcγRIII (mouse, UniProt P08508 31-215)
# T2 construct: Extracellular domain with C-terminal His tag, made in FreeStyle 293 cells; also called mFcγRIII; mFcgRIII
# T2 chain: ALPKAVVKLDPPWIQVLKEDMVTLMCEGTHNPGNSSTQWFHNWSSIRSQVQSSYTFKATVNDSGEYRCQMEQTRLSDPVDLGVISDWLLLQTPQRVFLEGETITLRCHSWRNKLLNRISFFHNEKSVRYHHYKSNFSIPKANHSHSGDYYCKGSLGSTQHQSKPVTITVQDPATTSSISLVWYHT
# How the values were obtained:
# [1] = target: T1, mouse FcγRII; test: SPR (Biacore), KD of H237-mIgG1/MRAL-k0 (same run) / KD of variant
# Experimental: (§1) Each altered antibody was analyzed for its interaction with each Fcγ receptor prepared above using Biacore T100 (GE Healthcare Japan Corp.), Biacore T200 (GE Healthcare Japan Corp.), Biacore A100, or Biacore 4000. The running buffer used was HBS-EP+ (GE Healthcare Japan Corp.). The assay temperature was set to 25° C. The sensor chips used were chips prepared by immobilizing Protein L (ACTIGEN or BioVision) onto Series S Sensor Chip CM5 (GE Healthcare Japan Corp.) or Series S Sensor Chip CM4 (GE Healthcare Japan Corp.) by the amine coupling method.
# (§2) In order to calculate the KD value of each altered antibody for FcγR, kinetic analysis was conducted according to the following method: first, the antibody of interest was captured onto any of these chips and allowed to interact with mFcγR diluted with a running buffer. For the obtained sensorgram, the assay results were globally fit into the 1:1 Langmuir binding model using Biacore Evaluation Software to calculate an association rate constant ka (L/mol/s) and a dissociation rate constant kd (1/s). From these values, the dissociation constant KD (mol/L) was calculated.
# [2] = target: T2, mouse FcγRIII; test: as above
# Experimental: as §1, §2
# [3] = target: T1, mouse FcγRII; test: SPR (Biacore), antibody captured on Protein L
# Experimental: as §1, §2
# [4] = target: T2, mouse FcγRIII; test: SPR (Biacore), antibody captured on Protein L
# Experimental: as §1, §2
Binder,relative mFcγRII-binding activity (mIgG1 = 1) [1] [fold],relative mFcγRIII-binding activity (mIgG1 = 1) [2] [fold],Kd [3] [nM],Kd [4] [nM]
"H237-MB618/MRAL-k0 (antibody, mouse IgG1, kappa, copies: 2 + 2) heavy: QVQLQESGPGLVKPSETLSLTCAVSGHSISHDHAWSWVRQPPGEGLEWIGFISYSGITNYNPSLQGRVTISRDNSKNTLYLQMNSLRAEDTAVYYCARSLARTTAMDYWGEGTLVTVSSAKTTPPSVYPLAPGSAAQTNSMVTLGCLVKGYFPEPVTVTWNSGSLSSGVHTFPAVLQSDLYTLSSSVTVPSSTWPSETVTCNVAHPASSTKVDKKIVPRDCGCKPCICTVPEEDDVFIFPPKPKDVLTITLTPKVTCVVVDISKDDPEVQFSWFVDDVEVHTAQTQPREEQFNSTFRSVSELPIMHQDWLNGKEFKCRVNSAAFPAPIEKTISKTKGRPKAPQVYTIPPPKEQMAKDKVSLTCMITDFFPEDITVEWQWNGQPAENYKNTQPIMDTDGSYFVYSKLNVQKSNWEAGNTFTCSVLHEGLHNHHTEKSLSHSPGK light: not shown",1.63,0.13,156,2730
"H237-MB623/MRAL-k0 (antibody, mouse IgG1, kappa, copies: 2 + 2) heavy: QVQLQESGPGLVKPSETLSLTCAVSGHSISHDHAWSWVRQPPGEGLEWIGFISYSGITNYNPSLQGRVTISRDNSKNTLYLQMNSLRAEDTAVYYCARSLARTTAMDYWGEGTLVTVSSAKTTPPSVYPLAPGSAAQTNSMVTLGCLVKGYFPEPVTVTWNSGSLSSGVHTFPAVLQSDLYTLSSSVTVPSSTWPSETVTCNVAHPASSTKVDKKIVPRDCGCKPCICEAYEVELVFIFPPKPKDVLTITLTPKVTCVVVDISKDDPEVQFSWFVDDVEVHTAQTQPREEQFNSTFRSVSELPIMHQDWLNGKEFKCRVNSAAFPAPIEKTISKTKGRPKAPQVYTIPPPKEQMAKDKVSLTCMITDFFPEDITVEWQWNGQPAENYKNTQPIMDTDGSYFVYSKLNVQKSNWEAGNTFTCSVLHEGLHNHHTEKSLSHSPGK light: not shown",0.59,0.1,395,3170

# The next lines start with the values.
relative mFcγRII-binding activity (mIgG1 = 1) [1] [fold],relative mFcγRIII-binding activity (mIgG1 = 1) [2] [fold],Kd [3] [nM],Kd [4] [nM],Binder
0.74,0.14,312,2310,"H237-MB625/MRAL-k0 (antibody, mouse IgG1, kappa, copies: 2 + 2) heavy: QVQLQESGPGLVKPSETLSLTCAVSGHSISHDHAWSWVRQPPGEGLEWIGFISYSGITNYNPSLQGRVTISRDNSKNTLYLQMNSLRAEDTAVYYCARSLARTTAMDYWGEGTLVTVSSAKTTPPSVYPLAPGSAAQTNSMVTLGCLVKGYFPEPVTVTWNSGSLSSGVHTFPAVLQSDLYTLSSSVTVPSSTWPSETVTCNVAHPASSTKVDKKIVPRDCGCKPCICENYEVELVFIFPPKPKDVLTITLTPKVTCVVVDISKDDPEVQFSWFVDDVEVHTAQTQPREEQFNSTFRSVSELPIMHQDWLNGKEFKCRVNSAAFPAPIEKTISKTKGRPKAPQVYTIPPPKEQMAKDKVSLTCMITDFFPEDITVEWQWNGQPAENYKNTQPIMDTDGSYFVYSKLNVQKSNWEAGNTFTCSVLHEGLHNHHTEKSLSHSPGK light: not shown"
0.88,0.11,263,2870,"H237-MB624/MRAL-k0 (antibody, mouse IgG1, kappa, copies: 2 + 2) heavy: QVQLQESGPGLVKPSETLSLTCAVSGHSISHDHAWSWVRQPPGEGLEWIGFISYSGITNYNPSLQGRVTISRDNSKNTLYLQMNSLRAEDTAVYYCARSLARTTAMDYWGEGTLVTVSSAKTTPPSVYPLAPGSAAQTNSMVTLGCLVKGYFPEPVTVTWNSGSLSSGVHTFPAVLQSDLYTLSSSVTVPSSTWPSETVTCNVAHPASSTKVDKKIVPRDCGCKPCICEDYEVELVFIFPPKPKDVLTITLTPKVTCVVVDISKDDPEVQFSWFVDDVEVHTAQTQPREEQFNSTFRSVSELPIMHQDWLNGKEFKCRVNSAAFPAPIEKTISKTKGRPKAPQVYTIPPPKEQMAKDKVSLTCMITDFFPEDITVEWQWNGQPAENYKNTQPIMDTDGSYFVYSKLNVQKSNWEAGNTFTCSVLHEGLHNHHTEKSLSHSPGK light: not shown"
